Reference: patent US20240400708A1

What was measured:
[1] = molecular target: feline FcRn complex (FcRn-α subunit and β-microglobulin), biotin labeled (feline); assay: SPR, pH 7.4
[2] = molecular target: feline FcRn complex (FcRn-α subunit and β-microglobulin), biotin labeled (feline); assay: SPR, pH 6

| Kd [1] | Kd [2] | Binder |
| --- | --- | --- |
| 11.7 nM | 0.774 nM | feline IgG1a S252Y/S434H (antibody, part only; not given: Variable domains, not shown: another chain or arm of the molecule) constant: ASTTAPSVFPLAPSCGTTSGATVALACLVLGYFPEPVTVSWNSGALTSGVHTFPAVLQASGLYSLSSMVTVPSSRWLSDTFTCNVAHPPSNTKVDKTVRKTDHPPGPKPCDCPKCPPPEMLGGPSIFIFPPKPKDTLYISRTPEVTCLVVDLGPDDSDVQITWFVDNTQVYTAKTSPREEQFNSTYRVVSVLPILHQDWLKGKEFKCKVNSKSLPSPIERTISKAKGQPHEPQVYVLPPAQEELSRNKVSVTCLIKSFHPPDIAVEWEITGQPEPENNYRTTPPQLDSDGTYFVYSKLSVDRSHWQRGNTYTCSVSHEALHHHHTQKSLTQSPGK |
| 7430 nM | 244 nM | feline IgG1a L314K/S434Y (antibody, part only; not given: Variable domains, not shown: another chain or arm of the molecule) constant: ASTTAPSVFPLAPSCGTTSGATVALACLVLGYFPEPVTVSWNSGALTSGVHTFPAVLQASGLYSLSSMVTVPSSRWLSDTFTCNVAHPPSNTKVDKTVRKTDHPPGPKPCDCPKCPPPEMLGGPSIFIFPPKPKDTLSISRTPEVTCLVVDLGPDDSDVQITWFVDNTQVYTAKTSPREEQFNSTYRVVSVLPILHQDWKKGKEFKCKVNSKSLPSPIERTISKAKGQPHEPQVYVLPPAQEELSRNKVSVTCLIKSFHPPDIAVEWEITGQPEPENNYRTTPPQLDSDGTYFVYSKLSVDRSHWQRGNTYTCSVSHEALHYHHTQKSLTQSPGK |
| 2350 nM | 173 nM | feline IgG1a S252F/S434F (antibody, part only; not given: Variable domains, not shown: another chain or arm of the molecule) constant: ASTTAPSVFPLAPSCGTTSGATVALACLVLGYFPEPVTVSWNSGALTSGVHTFPAVLQASGLYSLSSMVTVPSSRWLSDTFTCNVAHPPSNTKVDKTVRKTDHPPGPKPCDCPKCPPPEMLGGPSIFIFPPKPKDTLFISRTPEVTCLVVDLGPDDSDVQITWFVDNTQVYTAKTSPREEQFNSTYRVVSVLPILHQDWLKGKEFKCKVNSKSLPSPIERTISKAKGQPHEPQVYVLPPAQEELSRNKVSVTCLIKSFHPPDIAVEWEITGQPEPENNYRTTPPQLDSDGTYFVYSKLSVDRSHWQRGNTYTCSVSHEALHFHHTQKSLTQSPGK |
| 50.3 nM | 2.76 nM | feline IgG1a Q311W/D312P (antibody, part only; not given: Variable domains, not shown: another chain or arm of the molecule) constant: ASTTAPSVFPLAPSCGTTSGATVALACLVLGYFPEPVTVSWNSGALTSGVHTFPAVLQASGLYSLSSMVTVPSSRWLSDTFTCNVAHPPSNTKVDKTVRKTDHPPGPKPCDCPKCPPPEMLGGPSIFIFPPKPKDTLSISRTPEVTCLVVDLGPDDSDVQITWFVDNTQVYTAKTSPREEQFNSTYRVVSVLPILHWPWLKGKEFKCKVNSKSLPSPIERTISKAKGQPHEPQVYVLPPAQEELSRNKVSVTCLIKSFHPPDIAVEWEITGQPEPENNYRTTPPQLDSDGTYFVYSKLSVDRSHWQRGNTYTCSVSHEALHSHHTQKSLTQSPGK |
| 16100 nM | 12.4 nM | feline IgG1a S254I (antibody, part only; not given: Variable domains, not shown: another chain or arm of the molecule) constant: ASTTAPSVFPLAPSCGTTSGATVALACLVLGYFPEPVTVSWNSGALTSGVHTFPAVLQASGLYSLSSMVTVPSSRWLSDTFTCNVAHPPSNTKVDKTVRKTDHPPGPKPCDCPKCPPPEMLGGPSIFIFPPKPKDTLSIIRTPEVTCLVVDLGPDDSDVQITWFVDNTQVYTAKTSPREEQFNSTYRVVSVLPILHQDWLKGKEFKCKVNSKSLPSPIERTISKAKGQPHEPQVYVLPPAQEELSRNKVSVTCLIKSFHPPDIAVEWEITGQPEPENNYRTTPPQLDSDGTYFVYSKLSVDRSHWQRGNTYTCSVSHEALHSHHTQKSLTQSPGK |
| 1800 nM | 22.6 nM | feline IgG1a D312P/S434Y (antibody, part only; not given: Variable domains, not shown: another chain or arm of the molecule) constant: ASTTAPSVFPLAPSCGTTSGATVALACLVLGYFPEPVTVSWNSGALTSGVHTFPAVLQASGLYSLSSMVTVPSSRWLSDTFTCNVAHPPSNTKVDKTVRKTDHPPGPKPCDCPKCPPPEMLGGPSIFIFPPKPKDTLSISRTPEVTCLVVDLGPDDSDVQITWFVDNTQVYTAKTSPREEQFNSTYRVVSVLPILHQPWLKGKEFKCKVNSKSLPSPIERTISKAKGQPHEPQVYVLPPAQEELSRNKVSVTCLIKSFHPPDIAVEWEITGQPEPENNYRTTPPQLDSDGTYFVYSKLSVDRSHWQRGNTYTCSVSHEALHYHHTQKSLTQSPGK |
| 5.06 nM | 1.48 nM | feline IgG1a S252R (antibody, part only; not given: Variable domains, not shown: another chain or arm of the molecule) constant: ASTTAPSVFPLAPSCGTTSGATVALACLVLGYFPEPVTVSWNSGALTSGVHTFPAVLQASGLYSLSSMVTVPSSRWLSDTFTCNVAHPPSNTKVDKTVRKTDHPPGPKPCDCPKCPPPEMLGGPSIFIFPPKPKDTLRISRTPEVTCLVVDLGPDDSDVQITWFVDNTQVYTAKTSPREEQFNSTYRVVSVLPILHQDWLKGKEFKCKVNSKSLPSPIERTISKAKGQPHEPQVYVLPPAQEELSRNKVSVTCLIKSFHPPDIAVEWEITGQPEPENNYRTTPPQLDSDGTYFVYSKLSVDRSHWQRGNTYTCSVSHEALHSHHTQKSLTQSPGK |
| 2160 nM | 44 nM | feline IgG1a S254C (antibody, part only; not given: Variable domains, not shown: another chain or arm of the molecule) constant: ASTTAPSVFPLAPSCGTTSGATVALACLVLGYFPEPVTVSWNSGALTSGVHTFPAVLQASGLYSLSSMVTVPSSRWLSDTFTCNVAHPPSNTKVDKTVRKTDHPPGPKPCDCPKCPPPEMLGGPSIFIFPPKPKDTLSICRTPEVTCLVVDLGPDDSDVQITWFVDNTQVYTAKTSPREEQFNSTYRVVSVLPILHQDWLKGKEFKCKVNSKSLPSPIERTISKAKGQPHEPQVYVLPPAQEELSRNKVSVTCLIKSFHPPDIAVEWEITGQPEPENNYRTTPPQLDSDGTYFVYSKLSVDRSHWQRGNTYTCSVSHEALHSHHTQKSLTQSPGK |
| 1370 nM | 6.15 nM | feline IgG1a S252F/S434W (antibody, part only; not given: Variable domains, not shown: another chain or arm of the molecule) constant: ASTTAPSVFPLAPSCGTTSGATVALACLVLGYFPEPVTVSWNSGALTSGVHTFPAVLQASGLYSLSSMVTVPSSRWLSDTFTCNVAHPPSNTKVDKTVRKTDHPPGPKPCDCPKCPPPEMLGGPSIFIFPPKPKDTLFISRTPEVTCLVVDLGPDDSDVQITWFVDNTQVYTAKTSPREEQFNSTYRVVSVLPILHQDWLKGKEFKCKVNSKSLPSPIERTISKAKGQPHEPQVYVLPPAQEELSRNKVSVTCLIKSFHPPDIAVEWEITGQPEPENNYRTTPPQLDSDGTYFVYSKLSVDRSHWQRGNTYTCSVSHEALHWHHTQKSLTQSPGK |
| 16.3 nM | 1.19 nM | feline IgG1a S434R (antibody, part only; not given: Variable domains, not shown: another chain or arm of the molecule) constant: ASTTAPSVFPLAPSCGTTSGATVALACLVLGYFPEPVTVSWNSGALTSGVHTFPAVLQASGLYSLSSMVTVPSSRWLSDTFTCNVAHPPSNTKVDKTVRKTDHPPGPKPCDCPKCPPPEMLGGPSIFIFPPKPKDTLSISRTPEVTCLVVDLGPDDSDVQITWFVDNTQVYTAKTSPREEQFNSTYRVVSVLPILHQDWLKGKEFKCKVNSKSLPSPIERTISKAKGQPHEPQVYVLPPAQEELSRNKVSVTCLIKSFHPPDIAVEWEITGQPEPENNYRTTPPQLDSDGTYFVYSKLSVDRSHWQRGNTYTCSVSHEALHRHHTQKSLTQSPGK |
| 49800 nM | 9.91 nM | feline IgG1a S254V (antibody, part only; not given: Variable domains, not shown: another chain or arm of the molecule) constant: ASTTAPSVFPLAPSCGTTSGATVALACLVLGYFPEPVTVSWNSGALTSGVHTFPAVLQASGLYSLSSMVTVPSSRWLSDTFTCNVAHPPSNTKVDKTVRKTDHPPGPKPCDCPKCPPPEMLGGPSIFIFPPKPKDTLSIVRTPEVTCLVVDLGPDDSDVQITWFVDNTQVYTAKTSPREEQFNSTYRVVSVLPILHQDWLKGKEFKCKVNSKSLPSPIERTISKAKGQPHEPQVYVLPPAQEELSRNKVSVTCLIKSFHPPDIAVEWEITGQPEPENNYRTTPPQLDSDGTYFVYSKLSVDRSHWQRGNTYTCSVSHEALHSHHTQKSLTQSPGK |
| 37.7 nM | 1.53 nM | feline IgG1a Q311W/D312P/S434Y (antibody, part only; not given: Variable domains, not shown: another chain or arm of the molecule) constant: ASTTAPSVFPLAPSCGTTSGATVALACLVLGYFPEPVTVSWNSGALTSGVHTFPAVLQASGLYSLSSMVTVPSSRWLSDTFTCNVAHPPSNTKVDKTVRKTDHPPGPKPCDCPKCPPPEMLGGPSIFIFPPKPKDTLSISRTPEVTCLVVDLGPDDSDVQITWFVDNTQVYTAKTSPREEQFNSTYRVVSVLPILHWPWLKGKEFKCKVNSKSLPSPIERTISKAKGQPHEPQVYVLPPAQEELSRNKVSVTCLIKSFHPPDIAVEWEITGQPEPENNYRTTPPQLDSDGTYFVYSKLSVDRSHWQRGNTYTCSVSHEALHYHHTQKSLTQSPGK |
| 5690 nM | 27.3 nM | feline IgG1a S254P (antibody, part only; not given: Variable domains, not shown: another chain or arm of the molecule) constant: ASTTAPSVFPLAPSCGTTSGATVALACLVLGYFPEPVTVSWNSGALTSGVHTFPAVLQASGLYSLSSMVTVPSSRWLSDTFTCNVAHPPSNTKVDKTVRKTDHPPGPKPCDCPKCPPPEMLGGPSIFIFPPKPKDTLSIPRTPEVTCLVVDLGPDDSDVQITWFVDNTQVYTAKTSPREEQFNSTYRVVSVLPILHQDWLKGKEFKCKVNSKSLPSPIERTISKAKGQPHEPQVYVLPPAQEELSRNKVSVTCLIKSFHPPDIAVEWEITGQPEPENNYRTTPPQLDSDGTYFVYSKLSVDRSHWQRGNTYTCSVSHEALHSHHTQKSLTQSPGK |
| 55.8 nM | 3.47 nM | feline IgG1a Q311W/L314K (antibody, part only; not given: Variable domains, not shown: another chain or arm of the molecule) constant: ASTTAPSVFPLAPSCGTTSGATVALACLVLGYFPEPVTVSWNSGALTSGVHTFPAVLQASGLYSLSSMVTVPSSRWLSDTFTCNVAHPPSNTKVDKTVRKTDHPPGPKPCDCPKCPPPEMLGGPSIFIFPPKPKDTLSISRTPEVTCLVVDLGPDDSDVQITWFVDNTQVYTAKTSPREEQFNSTYRVVSVLPILHWDWKKGKEFKCKVNSKSLPSPIERTISKAKGQPHEPQVYVLPPAQEELSRNKVSVTCLIKSFHPPDIAVEWEITGQPEPENNYRTTPPQLDSDGTYFVYSKLSVDRSHWQRGNTYTCSVSHEALHSHHTQKSLTQSPGK |
| 427 nM | 50.3 nM | feline IgG1a T256F (antibody, part only; not given: Variable domains, not shown: another chain or arm of the molecule) constant: ASTTAPSVFPLAPSCGTTSGATVALACLVLGYFPEPVTVSWNSGALTSGVHTFPAVLQASGLYSLSSMVTVPSSRWLSDTFTCNVAHPPSNTKVDKTVRKTDHPPGPKPCDCPKCPPPEMLGGPSIFIFPPKPKDTLSISRFPEVTCLVVDLGPDDSDVQITWFVDNTQVYTAKTSPREEQFNSTYRVVSVLPILHQDWLKGKEFKCKVNSKSLPSPIERTISKAKGQPHEPQVYVLPPAQEELSRNKVSVTCLIKSFHPPDIAVEWEITGQPEPENNYRTTPPQLDSDGTYFVYSKLSVDRSHWQRGNTYTCSVSHEALHSHHTQKSLTQSPGK |
